PMC4813479, “β-Subunit Binding Is Sufficient for Ligands to Open the Integrin αIIbβ3 Headpiece” (The Journal of Biological Chemistry, 2015)

Biological target: full-length human αIIbβ3 on CHO K1 cells (human) (UniProt P08514)

## fibronectin hexapeptide GRGDSP
  EC50 of LIBS1 epitope exposure on CHO cells expressing αIIbβ3 (flow cytometry, 1 mM Mg2+ and 1 mM Ca2+): 210 µM
